Source: patent US7541450B2, “Ligand-dependent protein splicing” (President and Fellows of Harvard College, priority 2004, dated 2009)
Entries after “also recorded” stand apart in the source; their conditions may differ.

Tested on: aminoglycoside phosphorylase (KanR)
Type: cell-based, S. cerevisiae

B1: intein(N)-ER-intein(C): starting RecA intein with the estrogen receptor ligand binding domain in place of the endonuclease domain, SEQ ID NO: 1 (protein)
chain: CLAEGTRIFDPVTGTTHRIEDVVDGRKPIHVVAAAKDGTLHARPVVSWFDQGTRDVIGLRIAGGAIVWATPDHKVLTEYGWRAAGELRKGDRVAGPGGSGNSLALSLTADQMVSALLDAEPPILYSEYDPTRPFSEASMMGLLTNLADRELVHMINWAKRVPGFVDLTLHDQVHLLECAWLEILMIGLVWRSMEHPGKLLFAPNLLLDRNQGKCVEGMVEIFDMLLATSSRFRMMNLQGEEFVCLKSIILLNSGVYTFLSSTLKSLEEKDHIHRVLDKITDTLIHLMAKAGLTLQQQHQRLAQLLLILSHIRHMSNKRMEHLYSMKCKNVVPLYDLLLEMLDAHRLHAGGSGASRVQAFADALDDKFLHDMLAEELRYSVIREVLPTRRARTFDLEVEELHTLVAEGVVVHN
modifications: M. tuberculosis RecA intein with the estrogen ligand binding domain inserted in place of the RecA endonuclease domain with six amino acid linkers in between.
Question: With B1 as the molecule, how does the “geneticin resistance (growth) in the KanR context” value read?
Answer: confers no geneticin resistance in the presence or absence of 4-HT; also recorded: unable to grown; also recorded: fails to confer geneticin resistance
